Results from US20250186594A1 (BRIGHT PEAK THERAPEUTICS, published 2025).
Substitutions are numbered along the chain they refer to. In names and notes the source's numbering stands.

T1: Fc fused human IL-18Rα (human, UniProt Q13478 19-329, limits assumed)
T1 construct: also called IL-18Rα monomer; human IL-18 receptor alpha (CD218a); not shown: Fc
T1 sequence (looked up): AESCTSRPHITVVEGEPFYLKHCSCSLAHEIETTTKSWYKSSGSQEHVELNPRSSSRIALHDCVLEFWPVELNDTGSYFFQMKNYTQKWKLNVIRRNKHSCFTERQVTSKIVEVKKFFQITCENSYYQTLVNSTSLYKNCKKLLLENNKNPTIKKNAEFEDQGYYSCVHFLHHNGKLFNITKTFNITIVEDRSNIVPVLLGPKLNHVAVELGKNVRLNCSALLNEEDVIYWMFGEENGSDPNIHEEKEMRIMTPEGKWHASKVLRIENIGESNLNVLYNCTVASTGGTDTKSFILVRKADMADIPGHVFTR

T2: IL-18Rα/β heterodimer (Fc fused human IL-18Rα mixed with Fc fused human IL-18Rβ) (human, UniProt Q13478 19-329; O95256 20-356, limits assumed)
T2 construct: Alpha and beta Fc fusions were mixed and pre-incubated for 30 min before capture on anti-human IgG; also called alpha/beta heterodimer IL-18 receptor; heterodimeric human IL-18 receptor alpha (CD218a) and IL-18R accessory protein (IL-18RAP/CDw218b); not shown: Fc
T2 sequence (looked up) 1: T1 sequence (looked up)
T2 sequence (looked up) 2: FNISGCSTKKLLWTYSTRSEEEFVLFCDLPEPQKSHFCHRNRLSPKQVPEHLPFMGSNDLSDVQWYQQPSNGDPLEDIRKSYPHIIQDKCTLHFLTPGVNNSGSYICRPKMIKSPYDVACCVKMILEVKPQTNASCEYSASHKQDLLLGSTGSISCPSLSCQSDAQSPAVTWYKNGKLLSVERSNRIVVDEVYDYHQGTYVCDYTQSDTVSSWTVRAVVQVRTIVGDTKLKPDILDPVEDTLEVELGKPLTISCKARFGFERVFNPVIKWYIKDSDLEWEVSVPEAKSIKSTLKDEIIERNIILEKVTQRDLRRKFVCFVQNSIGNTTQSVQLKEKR

T3: IL-18 receptor (IL-18R) on HEK-Blue IL18R reporter cells (UniProt Q13478 19-541; O95256 20-599, limits assumed)
T3 sequence (looked up) 1: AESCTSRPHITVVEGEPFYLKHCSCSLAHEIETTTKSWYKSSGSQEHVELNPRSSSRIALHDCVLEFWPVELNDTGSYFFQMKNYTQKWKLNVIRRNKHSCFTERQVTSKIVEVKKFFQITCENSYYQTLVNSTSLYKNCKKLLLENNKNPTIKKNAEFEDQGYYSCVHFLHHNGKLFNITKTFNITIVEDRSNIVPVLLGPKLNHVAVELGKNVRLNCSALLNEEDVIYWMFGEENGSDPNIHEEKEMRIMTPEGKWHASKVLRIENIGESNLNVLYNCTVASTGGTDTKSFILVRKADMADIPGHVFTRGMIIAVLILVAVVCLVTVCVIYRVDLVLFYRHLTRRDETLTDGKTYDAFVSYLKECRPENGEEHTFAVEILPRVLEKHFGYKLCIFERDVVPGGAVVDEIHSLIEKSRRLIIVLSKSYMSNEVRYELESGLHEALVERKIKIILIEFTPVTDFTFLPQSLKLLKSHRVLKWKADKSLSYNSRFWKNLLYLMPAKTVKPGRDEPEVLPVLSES
T3 sequence (looked up) 2: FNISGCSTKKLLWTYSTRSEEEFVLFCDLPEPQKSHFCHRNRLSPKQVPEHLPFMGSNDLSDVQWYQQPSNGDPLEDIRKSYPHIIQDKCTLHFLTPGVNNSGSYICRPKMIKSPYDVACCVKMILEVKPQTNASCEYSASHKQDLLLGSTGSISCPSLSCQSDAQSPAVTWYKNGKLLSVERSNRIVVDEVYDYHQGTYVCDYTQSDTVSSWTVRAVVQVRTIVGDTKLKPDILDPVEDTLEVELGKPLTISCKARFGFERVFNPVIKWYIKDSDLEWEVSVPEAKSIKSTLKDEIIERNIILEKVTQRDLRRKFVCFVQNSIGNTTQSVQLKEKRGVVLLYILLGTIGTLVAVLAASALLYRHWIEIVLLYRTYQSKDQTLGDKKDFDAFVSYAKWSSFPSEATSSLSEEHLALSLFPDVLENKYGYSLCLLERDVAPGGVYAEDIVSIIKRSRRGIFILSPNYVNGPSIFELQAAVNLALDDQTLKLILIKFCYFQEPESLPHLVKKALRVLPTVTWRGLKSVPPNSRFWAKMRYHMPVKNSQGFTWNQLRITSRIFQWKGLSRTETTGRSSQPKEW

B1: IL-18 variant SEQ ID NO: 30 with 5 kDa PEG (E6K, V11I, C38A, K53A, T63A, C76A, C127A, C68-5kPEG) (ligand)
chain: YFGKLKSKLSIIRNLNDQVLFIDQGNRPLFEDMTDSDARDNAPRTIFIISMYADSQPRGMAVAISVKCEKISTLSAENKIISFKEMNPPDNIKDTKSDIIFFQRSVPGHDNKMQFESSSYEGYFLAAEKERDLFKLILKKEDELGDRSIMFTVQNED
modifications: 5 kDa PEG on Cys 68 (C68-5kPEG)
notes: also called 30 + PEG5
B2: IL-18 variant SEQ ID NO: 238 (E6K, V11I, C38A, K53A, T63A, C76A, C127A, V153Y) (ligand)
chain: B1 chain with V153Y
B3: IL-18 variant SEQ ID NO: 237 (E6K, V11I, C38A, K53A, T63A, C76A, C127A, V153E) (ligand)
chain: B1 chain with V153E
B4: IL-18 variant SEQ ID NO: 61 (E6K, C38A, K53A, C76A) (ligand)
chain: B1 chain with I11V, A63T, A127C
B5: IL-18 variant SEQ ID NO: 30 with 20 kDa PEG (E6K, V11I, C38A, K53A, T63A, C76A, C127A, C68-20kPEG) (ligand)
chain: B1 chain
modifications: 20 kDa PEG on Cys 68 (C68-20kPEG)
notes: also called 30 + PEG20
B6: IL-18 variant SEQ ID NO: 63 (E6K, C38A, K53A, C76A, C127A) (ligand)
chain: B1 chain with I11V, A63T
B7: IL-18 variant SEQ ID NO: 59 with 30 kDa PEG (E6K, C38A, K53A, C68-30kDPEG) (ligand)
chain: B1 chain with I11V, A63T, A76C, A127C
modifications: 30 kDa PEG on Cys 68 (C68-30kDPEG)
notes: also called 59 + PEG30; 59 + PEG
B8: IL-18 variant SEQ ID NO: 60 with 30 kDa PEG (E6K, C38Q, K53A, C68-30kPEG) (ligand)
chain: B1 chain with I11V, A38Q, A63T, A76C, A127C
modifications: 30 kDa PEG on Cys 68 (C68-30kPEG)
notes: also called 60 + PEG
B9: IL-18 variant SEQ ID NO: 30 with 10 kDa PEG (E6K, V11I, C38A, K53A, T63A, C76A, C127A, C68-10kPEG) (ligand)
chain: B1 chain
modifications: 10 kDa PEG on Cys 68 (C68-10kPEG)
notes: also called 30 + PEG10
B10: IL-18 variant SEQ ID NO: 57 with 30 kDa PEG (E6K, C38S, K53A, C68-30kDPEG) (ligand)
chain: B1 chain with I11V, A38S, A63T, A76C, A127C
modifications: 30 kDa PEG on Cys 68 (C68-30kDPEG)
notes: also called 57 + PEG30; 57 + PEG
B11: IL-18 variant SEQ ID NO: 60 (E6K, C38Q, K53A) (ligand)
chain: B1 chain with I11V, A38Q, A63T, A76C, A127C
B12: IL-18 variant SEQ ID NO: 61 with 30 kDa PEG (E6K, C38A, K53A, C76A, C68-30kPEG) (ligand)
chain: B1 chain with I11V, A63T, A127C
modifications: 30 kDa PEG on Cys 68 (C68-30kPEG)
notes: also called 61 + PEG
B13: IL-18 variant SEQ ID NO: 30 with 30 kDa PEG (E6K, V11I, C38A, K53A, T63A, C76A, C127A, C68-30kPEG) (ligand)
chain: B1 chain
modifications: 30 kDa PEG on Cys 68 (C68-30kPEG)
notes: also called 30 + PEG30; 30 + PEG
B14: IL-18 variant SEQ ID NO: 62 (E6K, C38A, K53A, C127A) (ligand)
chain: B1 chain with I11V, A63T, A76C
B15: IL-18 variant SEQ ID NO: 57 (E6K, C38S, K53A) (ligand)
chain: B1 chain with I11V, A38S, A63T, A76C, A127C
B16: IL-18 variant SEQ ID NO: 241 (N-terminal 4xG, E6K, V11I, C38A, K53A, T63A, C76A, C127A) (ligand)
chain: GGGGYFGKLKSKLSIIRNLNDQVLFIDQGNRPLFEDMTDSDARDNAPRTIFIISMYADSQPRGMAVAISVKCEKISTLSAENKIISFKEMNPPDNIKDTKSDIIFFQRSVPGHDNKMQFESSSYEGYFLAAEKERDLFKLILKKEDELGDRSIMFTVQNED

Columns and labels:
Fc fused human IL-18Rα = biological target: T1, Fc fused human IL-18Rα; assay: SPR, Fc-IL-18Rα captured, 1:1 fit
Procedure: (§1) The interaction of the wild type and of modified IL-18 polypeptides with human IL-18 receptor subunits are measured with Surface Plasmon Resonance (SPR) technology. Anti-human IgG antibodies are bound by amine coupling onto a CM5 chip to capture 6 µg/mL of Fc fused human IL-18Rα, […] of Fc fused human IL-18Rβ, or […] of Fc fused human IL-18BP isoform a (IL-18BPa) for 30 min before capture. In other settings, […] of alpha and beta IL-18 receptors are mixed and pre-incubated for 30 min before capture of the alpha/beta heterodimer IL-18 receptor.
(§2) The kinetic binding of the IL-18 analytes are measured with a Biacore 8K instrument in two fold serial dilutions starting at […] down to 0.98 nM. Regeneration of the surface back to amine coupled anti IgG antibody is done after every concentration of analyte. To measure the protein association to the receptors, the samples are injected with a flow rate of […] for 60 s, followed by 300 s buffer only to detect the dissociation. The used running buffer is 1×PBS with 0.05% Tween20. The relative response units (RU, Y-axis) are plotted against time (s, X-axis) and analyzed in a kinetic 1:1 binding model for the monomer receptor binding and for the binding to the IL-18BP. A kinetic heterogenous ligand fit model is applied for the alpha/beta heterodimer binding.

[1] = biological target: T2, IL-18Rα/β heterodimer (Fc fused human …); assay: SPR, Fc-IL-18Rα/β captured, heterogeneous ligand fit
Procedure: as §1, §2

[2] = biological target: T3, IL-18 receptor (IL-18R) on HEK-Blue …; assay: cell-based or functional assay
[3] = biological target: T3, IL-18 receptor (IL-18R) on HEK-Blue …; assay: cell-based or functional assay; remark: listed apart in the source

Row | Binder | Kd (Fc fused human IL-18Rα) [nM] | koff (Fc fused human IL-18Rα) [s⁻¹] | kon (Fc fused human IL-18Rα) [M⁻¹ s⁻¹] | Kd [1] [nM] | koff [1] [s⁻¹] | kon [1] [M⁻¹ s⁻¹] | EC50, HEK-Blue IL18R reporter [2] [nM] | EC50 (read off the curve); SEAP reporter in HEK-Blue IL18R cells (OD 620 nM) [3] [nM]
1 | B1 | 158 | 0.0748 | 475000 | 2.2 | 0.000594 | 269000 |  | 
2 | B2 |  |  |  |  |  |  | 0.08 | 
3 | B3 |  |  |  |  |  |  | 0.1 | 
4 | B4 | 30.4 | 0.0674 | 2.22e+06 | 1.01 | 0.0011 | 1.09e+06 | 0.084 | 
5 | B5 | 379 | 0.0805 | 213000 | 5.49 | 0.000637 | 116000 |  | 
6 | B6 | 42.2 | 0.976 | 2.31e+07 | 0.41 | 0.000467 | 1.15e+06 | 0.0139 | 
7 | B7 | 352 | 0.0264 | 74600 | 8.02 | 0.00058 | 84500 |  | 
8 | B8 | 345 | 0.0195 | 66300 | 13.3 | 0.000789 | 68300 |  | 
9 | B9 | 239 | 0.0779 | 326000 | 8.7 | 0.00105 | 120000 |  | 
10 | B10 | 701 | 0.0267 | 37900 | 23 | 0.000787 | 33800 |  | 
11 | B11 | 9.85 | 0.0102 | 1.03e+06 | 0.49 | 0.000589 | 1.21e+06 | 0.203 | 
12 | B12 | ~1000 | 0.0288 | 28700 | 15.5 | 0.000589 | 38100 |  | 
13 | B13 | 770 | 0.0842 | 125000 | 15.7 | 0.000618 | 39400 | 0.23 | 
14 | B14 | 63.9 | 0.0424 | 664000 | 1.24 | 0.00149 | 1.21e+06 | 0.17 | 
15 | B15 | 75 | 0.0133 | 95200 | 2.3 | 0.000816 | 535000 | 0.53 | 
16 | B16 |  |  |  |  |  |  | 2.5 | ~0.003
